This is an account of results in article PMC9807522 (Cancer Science, 2022).

Test [1] addresses recombinant human VEGFR2 protein (Octet) (Homo sapiens, UniProt P35968). The test can be described thus: BLI. A general note: BLI is a label-free optical method that tracks binding on a fibre tip over time.
Test [2] concerns the target VEGFR2 on VEGFR2 overexpressing 293FT cells (Homo sapiens (assumed), UniProt P35968). The test can be described thus: cell-based or functional assay.
Test [3] deals with recombinant rhesus macaque VEGFR2‐His protein (Macaca mulatta, UniProt F7E313). The test is described as follows: ELISA. A general note: In an ELISA, binding on a coated surface is turned into a signal by an enzyme label.

Broadly, the Kd is a measure of binding affinity in units of concentration.

Chain of VEGFR2 on VEGFR2 overexpressing 293FT cells (P35968 20-1356): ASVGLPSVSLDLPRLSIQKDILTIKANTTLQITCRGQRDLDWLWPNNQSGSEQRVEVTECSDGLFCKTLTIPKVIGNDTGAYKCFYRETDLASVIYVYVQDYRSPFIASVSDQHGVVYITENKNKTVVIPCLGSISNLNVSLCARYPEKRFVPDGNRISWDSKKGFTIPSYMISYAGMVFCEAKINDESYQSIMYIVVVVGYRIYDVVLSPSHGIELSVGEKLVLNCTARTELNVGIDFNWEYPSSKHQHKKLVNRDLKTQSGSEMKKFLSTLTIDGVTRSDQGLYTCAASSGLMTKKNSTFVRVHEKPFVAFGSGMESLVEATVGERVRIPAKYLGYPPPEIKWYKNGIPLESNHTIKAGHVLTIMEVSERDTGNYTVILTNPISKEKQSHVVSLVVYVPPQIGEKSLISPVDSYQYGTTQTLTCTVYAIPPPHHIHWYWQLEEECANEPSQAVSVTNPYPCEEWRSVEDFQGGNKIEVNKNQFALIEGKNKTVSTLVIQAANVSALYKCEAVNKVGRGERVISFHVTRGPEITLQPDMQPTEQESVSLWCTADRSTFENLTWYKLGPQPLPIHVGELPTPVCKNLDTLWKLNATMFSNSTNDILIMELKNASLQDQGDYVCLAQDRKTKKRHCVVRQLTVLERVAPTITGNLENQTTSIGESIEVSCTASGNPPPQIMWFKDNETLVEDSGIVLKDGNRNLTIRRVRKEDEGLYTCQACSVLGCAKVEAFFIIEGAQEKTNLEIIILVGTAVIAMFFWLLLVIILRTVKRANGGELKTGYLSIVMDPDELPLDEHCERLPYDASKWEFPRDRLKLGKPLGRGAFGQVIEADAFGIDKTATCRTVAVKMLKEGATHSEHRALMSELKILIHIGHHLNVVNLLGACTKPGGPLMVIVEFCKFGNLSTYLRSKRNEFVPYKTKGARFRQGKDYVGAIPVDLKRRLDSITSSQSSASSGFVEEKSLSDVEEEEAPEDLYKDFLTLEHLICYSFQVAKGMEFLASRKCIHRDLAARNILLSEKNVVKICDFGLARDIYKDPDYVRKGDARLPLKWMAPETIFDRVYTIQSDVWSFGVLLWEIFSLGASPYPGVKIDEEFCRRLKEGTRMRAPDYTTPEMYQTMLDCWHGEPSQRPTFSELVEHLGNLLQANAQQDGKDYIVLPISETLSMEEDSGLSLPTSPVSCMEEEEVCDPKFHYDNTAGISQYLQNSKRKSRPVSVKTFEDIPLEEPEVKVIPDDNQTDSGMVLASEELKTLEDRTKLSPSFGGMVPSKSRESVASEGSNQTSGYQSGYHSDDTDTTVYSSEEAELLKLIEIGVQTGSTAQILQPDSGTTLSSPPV
Chain of recombinant human VEGFR2 protein (Octet) (P35968 20-1356): as above

B1: ramucirumab (antibody, V domains shown)
VH: EVQLVQSGGGLVKPGGSLRLSCAASGFTFSSYSMNWVRQAPGKGLEWVSSISSSSSYIYYADSVKGRFTISRDNAKNSLYLQMNSLRAEDTAVYYCARVTDAFDIWGQGTMVTVSS
VL: DIQMTQSPSSVSASIGDRVTITCRASQGIDNWLGWYQQKPGKAPKLLIYDASNLDTGVPSRFSGSGSGTYFTLTISSLQAEDFAVYFCQQAKAFPPTFGGGTKVDIK
Turning to B1, the dissociation constant (Kd) in test [1] was 0.0458 nM. In test [2], the “EC50 of neutralisation of HUVEC proliferation induced by human VEGF-C” value stood at 0.0874 µg/mL and the “EC50 of neutralisation of HUVEC proliferation induced by human VEGF-C+VEGF-D” value came to 0.086 µg/mL. Also, the binding result in test [3] is “binds”.
